Consider 26 molecules from patent US20170368168A1 (AGENUS, published 2017).

Numbering of substitutions follows the chain as printed. Names and notes keep the numbering of the source.

Test [1] deals with T1, human TIM-3 expressed on cells (human, UniProt Q8TDQ0 22-301).
T1 construct: also called T cell immunoglobulin and mucin domain-3; HAVCR2
T1 sequence: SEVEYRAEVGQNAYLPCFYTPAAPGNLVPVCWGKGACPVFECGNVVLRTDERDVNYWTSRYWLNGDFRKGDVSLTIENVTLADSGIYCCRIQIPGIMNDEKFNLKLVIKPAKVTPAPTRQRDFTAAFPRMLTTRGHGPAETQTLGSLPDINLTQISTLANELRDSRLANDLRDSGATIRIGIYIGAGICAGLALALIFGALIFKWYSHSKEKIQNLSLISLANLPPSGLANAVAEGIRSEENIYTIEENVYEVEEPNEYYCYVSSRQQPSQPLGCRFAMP
As to the kind of experiment: flow cytometry, 1624-5 cells expressing human TIM-3.

For test [2], the target named is T1, human TIM-3 expressed on cells. As to the kind of experiment: flow cytometry, anti-CD3/anti-CD28 activated primary human CD8+ T cells. On the technique in general: A flow cytometer gives signals particle by particle.
Test [3] shares this target. As to the kind of experiment: flow cytometry, Jurkat cells ectopically expressing human TIM-3.
For test [4], the target named is T2, recombinant human TIM-1 His (R&D Systems, Cat#1750-TM) (human, UniProt Q96D42 21-295).
T2 construct: also called rhTIM-1 His
T2 sequence (looked up): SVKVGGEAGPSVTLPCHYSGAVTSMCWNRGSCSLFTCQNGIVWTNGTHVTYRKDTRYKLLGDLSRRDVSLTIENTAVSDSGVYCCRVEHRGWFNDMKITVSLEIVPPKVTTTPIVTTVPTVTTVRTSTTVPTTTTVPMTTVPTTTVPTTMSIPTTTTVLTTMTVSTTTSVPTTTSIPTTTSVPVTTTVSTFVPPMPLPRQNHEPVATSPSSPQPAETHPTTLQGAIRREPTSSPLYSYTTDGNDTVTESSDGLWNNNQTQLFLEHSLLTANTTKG
As to the kind of experiment: Luminex suspension array, antigen coupled to beads.

The target in test [5] is T3, recombinant human TIM-4 His (R&D, Cat#2929-TM) (human, UniProt Q96H15 25-315).
T3 construct: also called rhTIM-4 His
T3 sequence (looked up): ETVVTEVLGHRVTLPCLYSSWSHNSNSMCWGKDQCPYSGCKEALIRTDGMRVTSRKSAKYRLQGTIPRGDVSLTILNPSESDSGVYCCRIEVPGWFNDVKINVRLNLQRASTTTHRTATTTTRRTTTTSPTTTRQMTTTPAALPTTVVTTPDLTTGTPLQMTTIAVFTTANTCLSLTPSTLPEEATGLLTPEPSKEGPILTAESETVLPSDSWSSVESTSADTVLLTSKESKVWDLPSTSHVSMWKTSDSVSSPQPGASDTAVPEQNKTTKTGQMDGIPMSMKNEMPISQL
The experiment in a line: Luminex suspension array, antigen coupled to beads.

The target of test [6] is T4, recombinant human CD137 Fc (in house produced material) (human, UniProt Q07011 24-186).
T4 construct: also called rhCD137 Fc; not shown: Fc part
As to the kind of experiment: Luminex suspension array, antigen coupled to beads.

In test [7] the target is T5, recombinant human OX40 His (Sino Biological, #10481-H08H) (human, UniProt P43489 29-216).
T5 construct: also called rhOX40 His
T5 sequence (looked up): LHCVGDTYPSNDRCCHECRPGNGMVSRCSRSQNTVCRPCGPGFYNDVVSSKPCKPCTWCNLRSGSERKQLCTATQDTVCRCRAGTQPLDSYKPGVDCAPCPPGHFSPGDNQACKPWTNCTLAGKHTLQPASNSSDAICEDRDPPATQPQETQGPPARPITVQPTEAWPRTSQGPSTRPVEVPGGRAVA
The experiment in a line: Luminex suspension array, antigen coupled to beads.

For test [8], the target named is T6, recombinant mouse TIM-3 Fc (R&D Systems, #1529-TM) (mouse, UniProt Q8VIM0 20-191).
T6 construct: also called rmTIM-3 Fc; not shown: Fc part
T6 sequence (looked up): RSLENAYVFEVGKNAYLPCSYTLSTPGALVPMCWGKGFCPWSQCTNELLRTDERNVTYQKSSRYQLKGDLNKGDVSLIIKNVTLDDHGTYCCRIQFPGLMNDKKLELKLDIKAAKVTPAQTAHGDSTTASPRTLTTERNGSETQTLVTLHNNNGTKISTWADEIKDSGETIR
As to the kind of experiment: Luminex suspension array, antigen coupled to beads.

Test [9] deals with T7, recombinant human DR3 Fc (R&D Systems, #943-D3) (human, UniProt Q93038 25-201).
T7 construct: also called rhDR3 Fc; not shown: Fc part
T7 sequence (looked up): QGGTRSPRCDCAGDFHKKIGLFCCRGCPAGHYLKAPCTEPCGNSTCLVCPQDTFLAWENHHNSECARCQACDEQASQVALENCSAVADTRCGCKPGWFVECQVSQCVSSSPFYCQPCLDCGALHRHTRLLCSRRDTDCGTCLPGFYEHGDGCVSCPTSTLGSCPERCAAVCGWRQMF
The experiment in a line: Luminex suspension array, antigen coupled to beads.

The target in test [10] is T8, recombinant human GITR Fc (R&D Systems, #689-GR) (human, UniProt Q9Y5U5 26-161).
T8 construct: also called rhGITR Fc; not shown: Fc part
T8 sequence (looked up): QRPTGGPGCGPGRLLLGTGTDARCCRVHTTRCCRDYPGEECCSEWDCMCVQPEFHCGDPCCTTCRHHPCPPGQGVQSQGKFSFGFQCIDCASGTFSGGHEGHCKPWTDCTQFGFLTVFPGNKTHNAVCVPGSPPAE
The experiment in a line: Luminex suspension array, antigen coupled to beads.

B1: pab2174 (IgG1) (antibody, V domains shown)
VH: not shown
VL: EIVLTQSPATLSLSPGERATLSCRASQSVSSYLAWYQQKPGQAPRLLIYDASNRATGIPARFSGSGSGTDFTLTISRLEPEDFAVYYCQQYGSSPLTFGGGTKVEIK
As for B1, the binding result in [1] was “binds”.

B2: pab2191 (IgG1 variant) (antibody, V domains shown)
VH: not shown
VL: B1 VL with A9G
Regarding B2, the binding result in test [2] is recorded as “binds”.

B3: pab2191 (IgG1) (antibody, V domains shown)
VH: not shown
VL: B1 VL with A9G
For the molecule B3, the binding result in [1] is on record as “binds”.

B4: pab2188 (IgG1) (antibody, V domains shown)
VH: not shown
VL: B1 VL with R61S
On to B4, for which, in [1], the binding result is recorded as “binds”.

B5: pab2173 (IgG1) (antibody, V domains shown)
VH: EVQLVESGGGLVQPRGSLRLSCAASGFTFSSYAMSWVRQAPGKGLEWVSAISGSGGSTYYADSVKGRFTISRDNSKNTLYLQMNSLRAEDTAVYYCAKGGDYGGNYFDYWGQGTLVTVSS
VL: B1 VL
Take B5: the binding result in test [1] is “binds”.

B6: pab2180 (IgG1) (antibody, V domains shown)
VH: not shown
VL: B1 VL with A9G, N53S, A60D
Take B6: in test [1], the binding result is given as “binds”.

B7: pab2189 (IgG1) (antibody, V domains shown)
VH: not shown
VL: B1 VL
Regarding B7, the binding result in test [1] is reported as “binds”.

B8: pab2190 (IgG1) (antibody, V domains shown)
VH: not shown
VL: B1 VL with A9G, N53S, A60D
As to B8, in test [1], the binding result is “binds”.

B9: pab2184 (IgG1 variant) (antibody, V domains shown)
VH: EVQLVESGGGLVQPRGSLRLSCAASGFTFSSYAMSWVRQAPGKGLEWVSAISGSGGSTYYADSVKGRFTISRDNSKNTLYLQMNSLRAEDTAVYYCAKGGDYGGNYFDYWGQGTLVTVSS
VL: B1 VL with A9G, D50G, N53S, L96I
For B9, the binding result in test [2] is reported as “binds”.

B10: pab2176 (IgG1) (antibody, V domains shown)
VH: not shown
VL: B1 VL with A9G
Take B10: the binding result in [1] was “binds”.

B11: pab2182 (IgG1) (antibody, V domains shown)
VH: not shown
VL: B1 VL with A9G, D50G, N53S, L96I
Take B11: in [1], the binding result is “binds”.

B12: pab2177 (IgG1) (antibody, V domains shown)
VH: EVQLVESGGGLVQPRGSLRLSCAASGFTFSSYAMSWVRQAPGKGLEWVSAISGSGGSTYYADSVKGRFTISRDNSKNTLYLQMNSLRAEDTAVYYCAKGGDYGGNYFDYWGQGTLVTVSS
VL: B1 VL with A9G
Regarding B12, in test [1], the binding result is “binds”.

B13: pab2179 (IgG1) (antibody, V domains shown)
VH: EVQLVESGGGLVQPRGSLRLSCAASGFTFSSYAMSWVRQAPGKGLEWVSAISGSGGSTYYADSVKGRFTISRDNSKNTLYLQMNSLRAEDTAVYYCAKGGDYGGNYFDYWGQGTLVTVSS
VL: B1 VL with A9G, N53S, A60D
Consider B13, for which the binding result in test [1] is “binds”.

B14: pab2183 (IgG1) (antibody, V domains shown)
VH: not shown
VL: B1 VL with D50G, N53T
On to B14, for which, in test [1], the binding result is listed as “binds”.

B15: pab2178 (IgG1) (antibody, V domains shown)
VH: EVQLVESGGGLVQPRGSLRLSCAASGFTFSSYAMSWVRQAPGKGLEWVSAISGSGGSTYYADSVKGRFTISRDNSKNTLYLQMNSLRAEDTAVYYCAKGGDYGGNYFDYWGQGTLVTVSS
VL: B1 VL with R61S
For the molecule B15, in test [1], the binding result is “binds”.

B16: pab2190 (IgG1 variant) (antibody, V domains shown)
VH: not shown
VL: B1 VL with A9G, N53S, A60D
Regarding B16, in test [2], the binding result was “binds”.

B17: pab2184 (IgG1) (antibody, V domains shown)
VH: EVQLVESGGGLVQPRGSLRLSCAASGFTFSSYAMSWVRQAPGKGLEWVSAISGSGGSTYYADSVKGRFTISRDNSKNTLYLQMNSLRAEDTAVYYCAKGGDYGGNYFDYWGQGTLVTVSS
VL: B1 VL with A9G, D50G, N53S, L96I
For B17, the binding result in test [1] is reported as “binds”.

B18: pab2189 (IgG1 variant) (antibody, V domains shown)
VH: not shown
VL: B1 VL
B18: the binding result in [2] is “binds”.

B19: pab2175 (IgG1) (antibody, V domains shown)
VH: not shown
VL: B1 VL with R61S
Consider B19, for which, in [1], the binding result is “binds”.

B20: pab2192 (IgG1 variant) (antibody, V domains shown)
VH: not shown
VL: B1 VL with A9G, D50G, N53S, L96I
On to B20, for which the binding result in [2] is recorded as “binds”.

B21: pab2192 (IgG1) (antibody, V domains shown)
VH: not shown
VL: B1 VL with A9G, D50G, N53S, L96I
As for B21, the binding result in [1] was “binds”.

B22: pab2186 (IgG1) (antibody, V domains shown)
VH: not shown
VL: B1 VL with R77S
As for B22, in test [1], the binding result is recorded as “binds”.

B23: pab2186 (IgG1 variant) (antibody, V domains shown)
VH: not shown
VL: B1 VL with R77S
Consider B23, for which, in test [2], the binding result is listed as “binds”.

B24: AM-2 (IgG1 N297A) (antibody, V domains shown)
VH: EVQLVESGGGLVQPGGSLRLSCAASGFTFRQNAWSWVRRAPGKGLEWVSAISGSGGSTYYADSVKGRFTISRDNSKNTLYLQMNSLRAEDTAVYYCAKGGDYGGNYFDYWGQGTLVTVSS
VL: EIVLTQSPATLSLSPGERATLSCRASQSVSSYLAWYQQKPGQAPRLLIYDASNRATGIPASFSGSGSGTDFTLTISRLEPEDFAVYYCQQYGSSPLTFGGGTKVEIKR
Turning to B24, the binding result in test [3] is “binds”; in test [4], “no binding (tested: 10000 ng/ml to 0.1 ng/ml)”; in test [5], “no binding (tested: 10000 ng/ml to 0.1 ng/ml)”; in test [6], “no binding (tested: 10000 ng/ml to 0.1 ng/ml)”; in test [7] it was “no binding (tested: 10000 ng/ml to 0.1 ng/ml)”; in test [8] it was “no binding (tested: 10000 ng/ml to 0.1 ng/ml)”. The binding result in [9] and in [10] was “no binding (tested: 10000 ng/ml to 0.1 ng/ml)” in each case.

B25: AM-3 (IgG1 N297A) (antibody, V domains shown)
VH: B24 VH with R30M, Q31S, N32G, A33Q, W34T
VL: B24 VL
B25: in [3], the binding result was “binds”.

B26: AM-6 (IgG1 N297A) (antibody, V domains shown)
VH: B24 VH with R30A, Q31R
VL: B24 VL
As for B26, the binding result in test [3] is given as “binds”; in [4] it was “no binding (tested: 10000 ng/ml to 0.1 ng/ml)”; in test [5] it was “no binding (tested: 10000 ng/ml to 0.1 ng/ml)”; in [6], “no binding (tested: 10000 ng/ml to 0.1 ng/ml)”; in [7] it was “no binding (tested: 10000 ng/ml to 0.1 ng/ml)”; in [8] it was “no binding (tested: 10000 ng/ml to 0.1 ng/ml)”. In addition, the binding result in test [9] and in test [10] was “no binding (tested: 10000 ng/ml to 0.1 ng/ml)” throughout.
